From paper PMC6519459 (Science (New York, N.Y.), 2018)

Biological target: Rpn11 (deubiquitinase of the lid, 3XFLAG-tagged, in the 26S holoenzyme) (S. cerevisiae, UniProt P43588 1-306)
Test: cryo-EM structure

B1: ubiquitin (S. cerevisiae), the proximal, substrate-attached moiety of the polyubiquitin chain (natural protein)
chain: not shown
modifications: C terminus joined to the substrate lysine by an isopeptide bond; part of a K63-linked chain
- binding result: binds
